Laboratory results as given in US20210060185.

How the values were obtained:
[1] = system: T1, N-His Ana GvpC with ssrA degradation tag (engineered Anabaena flos-aquae GvpC, ClpXP-sensitive)
T1 sequence: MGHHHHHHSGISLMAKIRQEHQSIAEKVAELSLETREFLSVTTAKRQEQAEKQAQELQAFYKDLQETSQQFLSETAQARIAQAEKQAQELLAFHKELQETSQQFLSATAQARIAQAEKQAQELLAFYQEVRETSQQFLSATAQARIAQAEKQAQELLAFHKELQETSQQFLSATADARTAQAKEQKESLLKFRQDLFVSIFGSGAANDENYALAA

WT N-His-Ana-GvpC = system: T2, WT N-His-Ana-GvpC
T2 sequence: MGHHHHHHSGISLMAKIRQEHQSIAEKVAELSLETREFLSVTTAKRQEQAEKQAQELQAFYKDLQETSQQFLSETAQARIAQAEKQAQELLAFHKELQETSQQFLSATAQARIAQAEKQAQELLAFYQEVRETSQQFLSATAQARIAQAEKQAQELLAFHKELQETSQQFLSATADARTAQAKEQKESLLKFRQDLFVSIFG

[2] = system: dGvpC (Ana GvpC with SG-AANDENYALAA at the C-terminus, encoded in the acoustic sensor gene for ClpXP)

Substance | 50% collapse pressure after ClpXP exposure (FIG. 9D) [1] | degradation on Coomassie-stained SDS-PAGE [1] | hydrostatic collapse midpoint shift (pressurized absorbance spectroscopy) [1] | increase in nonlinear CNR (FIG. 9E) [1] | nonlinear (x-AM) ultrasound contrast enhancement [1] | collapse pressure, ultrasound contrast and SDS-PAGE (WT N-His-Ana-GvpC) | nonlinear CNR with ClpXP induction (FIG. 10F) [2] | nonlinear ultrasound contrast in the mouse colon [2]
ClpXP in the reconstituted cell-free TX-TL system (purified Flag-ClpXdeltaNLinkedHexamer-His6 and ClpP from the pBEST-ClpP plasmid) | a reduction of “50% collapse” pressure from about 476 kPa to about 223 kPa | Gel electrophoresis performed after incubating GVSClpXP with this cell-free extract showed significant degradation of the engineered GvpC, compared to a negative control condition in which the extract was pre-treated with a protease inhibitor | a substantial weakening of the GV shell upon ClpX exposure, with the hydrostatic collapse midpoint shifting by nearly 250 kPa | FIG. 9E shows an 860% increase in CNR | a 17 dB enhancement in the nonlinear contrast produced by GVSClpXP at an acoustic pressure of 477 kPa, in response to ClpXP activity | Control GVs containing wild type GvpC showed no sensitivity to ClpXP |  | 
ClpXP of E. coli Nissle 1917 (native, or ClpX and ClpP cloned from the Nissle genome under the pBAD promoter) |  |  |  |  |  |  | FIG. 10F shows a nonlinear CNR increase from 15.9 to 22.6 | Cells induced to express this enzyme showed enhanced nonlinear contrast compared to cells not expressing ClpXP
